Laboratory results: patent publication US20210238296A1 (Genmab, published 2021)

Tests used:
[1] = biological target: T1, CD20 (human, UniProt P11836 1-297); experiment: flow cytometry on Wien 133 and Raji cells (FIG. 7)
T1 construct: whole, on cells; cell surface target of IgG1-11B8; also called human CD20
T1 sequence (looked up): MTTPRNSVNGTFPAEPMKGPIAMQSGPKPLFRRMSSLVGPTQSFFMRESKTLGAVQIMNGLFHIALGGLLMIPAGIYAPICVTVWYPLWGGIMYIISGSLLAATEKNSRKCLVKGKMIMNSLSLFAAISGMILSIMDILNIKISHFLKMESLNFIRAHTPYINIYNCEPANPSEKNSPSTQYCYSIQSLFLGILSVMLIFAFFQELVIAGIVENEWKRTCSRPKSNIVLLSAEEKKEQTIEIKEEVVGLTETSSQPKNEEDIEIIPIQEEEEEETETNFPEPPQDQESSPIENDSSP

[2] = biological target: T2, FcRnECDHis-B2M-BIO (recombinant biotinylated extracellular domain of human FcRn as dimer with … (human, UniProt P55899 24-297; P61769 21-119, biotinylated); experiment: FcRn ELISA at pH 6.0
T2 construct: also called FcRnhsECDHis-B2M-BIO
T2 sequence (P55899 other isoform, or with tags, fused parts or gaps, chain 1 of 2): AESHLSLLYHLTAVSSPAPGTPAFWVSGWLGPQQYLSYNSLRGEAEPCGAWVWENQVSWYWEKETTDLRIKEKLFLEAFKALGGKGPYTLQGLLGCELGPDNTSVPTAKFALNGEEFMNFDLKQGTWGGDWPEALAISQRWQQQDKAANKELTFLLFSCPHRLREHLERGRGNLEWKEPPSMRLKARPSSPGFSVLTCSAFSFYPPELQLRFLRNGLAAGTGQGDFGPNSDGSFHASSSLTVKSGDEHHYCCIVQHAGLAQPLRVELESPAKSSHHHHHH
T2 sequence (P61769 21-119, chain 2 of 2): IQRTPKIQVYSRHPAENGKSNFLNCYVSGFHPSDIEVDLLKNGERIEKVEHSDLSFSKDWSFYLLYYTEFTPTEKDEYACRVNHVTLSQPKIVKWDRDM

[3] = biological target: T3, diFCGR2AH-HisBAP (dimeric extracellular domain of FcγRIIA allotype 131H) (Homo sapiens (Human), UniProt P12318 34-215, C-terminally biotinylated); experiment: ELISA, captured antibody 20 ug/mL, dimeric biotinylated FcγR ECD
T3 construct: dimeric, His-tagged, C-terminally biotinylated ECD; also called IIA-131H
T3 sequence: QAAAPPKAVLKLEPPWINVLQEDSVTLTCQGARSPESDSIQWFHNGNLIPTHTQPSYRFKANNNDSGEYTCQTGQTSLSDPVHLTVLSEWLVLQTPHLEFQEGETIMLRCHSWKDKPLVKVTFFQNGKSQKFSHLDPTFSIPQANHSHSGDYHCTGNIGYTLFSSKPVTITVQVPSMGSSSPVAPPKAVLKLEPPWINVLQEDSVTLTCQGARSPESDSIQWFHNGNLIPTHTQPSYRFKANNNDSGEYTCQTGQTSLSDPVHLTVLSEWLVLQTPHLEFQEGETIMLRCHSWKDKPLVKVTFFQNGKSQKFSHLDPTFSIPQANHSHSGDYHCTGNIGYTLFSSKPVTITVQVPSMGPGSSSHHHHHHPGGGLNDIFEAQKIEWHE

[4] = biological target: T4, diFCGR2AR-HisBAP (dimeric extracellular domain of FcγRIIA allotype 131R) (Homo sapiens (Human), UniProt P12318 36-215, C-terminally biotinylated); experiment: as above
T4 construct: dimeric, His-tagged, C-terminally biotinylated ECD; also called IIA-131R
T4 chain: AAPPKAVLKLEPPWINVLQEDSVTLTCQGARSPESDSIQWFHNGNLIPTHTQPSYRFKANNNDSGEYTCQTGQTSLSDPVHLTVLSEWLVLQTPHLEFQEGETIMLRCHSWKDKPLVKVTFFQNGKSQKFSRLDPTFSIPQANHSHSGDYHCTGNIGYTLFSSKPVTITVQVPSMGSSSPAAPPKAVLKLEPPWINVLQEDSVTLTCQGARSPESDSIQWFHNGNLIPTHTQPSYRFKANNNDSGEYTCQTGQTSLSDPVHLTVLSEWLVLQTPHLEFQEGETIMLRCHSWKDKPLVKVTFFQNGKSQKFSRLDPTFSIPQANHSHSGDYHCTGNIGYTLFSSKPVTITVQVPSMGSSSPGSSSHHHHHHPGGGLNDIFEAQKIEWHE

[5] = biological target: T5, diFCGR3AV-HisBAP (dimeric extracellular domain of FcγRIIIA allotype 158V) (C-terminally biotinylated); experiment: as above
T5 construct: dimeric, His-tagged, C-terminally biotinylated ECD; also called IIIA-158V

[6] = biological target: T6, diFCGR2B-HisBAP (dimeric extracellular domain of FcγRIIB) (Homo sapiens (Human), UniProt P31994 44-223, C-terminally biotinylated); experiment: as above
T6 construct: dimeric, His-tagged, C-terminally biotinylated ECD
T6 sequence: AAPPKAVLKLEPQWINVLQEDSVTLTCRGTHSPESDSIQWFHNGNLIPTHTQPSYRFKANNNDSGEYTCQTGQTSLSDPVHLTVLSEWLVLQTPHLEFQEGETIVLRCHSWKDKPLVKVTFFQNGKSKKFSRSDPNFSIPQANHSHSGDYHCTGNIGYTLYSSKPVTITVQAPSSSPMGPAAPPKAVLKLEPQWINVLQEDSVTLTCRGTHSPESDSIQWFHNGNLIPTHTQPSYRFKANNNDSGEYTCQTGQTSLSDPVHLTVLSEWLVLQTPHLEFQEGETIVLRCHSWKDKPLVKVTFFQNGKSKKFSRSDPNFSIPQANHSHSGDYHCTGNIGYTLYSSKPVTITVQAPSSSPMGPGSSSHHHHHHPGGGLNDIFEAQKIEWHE

[7] = biological target: T7, diFCGR3AF-HisBAP (dimeric extracellular domain of FcγRIIIA allotype 158F) (C-terminally biotinylated); experiment: as above
T7 construct: dimeric, His-tagged, C-terminally biotinylated ECD; also called IIIA-158F

[8] = biological target: T8, C1q (human, UniProt P02745 23-245; P02746 28-253; P02747 29-245); experiment: flow cytometry of C1q on antibody-opsonized Wien 133 cells, 20% NHS on ice
T8 construct: native C1q in 20% normal human serum, detected with rabbit anti-human C1q-FITC on antibody-opsonized Wien 133 cells; also called human C1q from normal human serum
T8 sequence (P02745 23-245 limits assumed, chain 1 of 3): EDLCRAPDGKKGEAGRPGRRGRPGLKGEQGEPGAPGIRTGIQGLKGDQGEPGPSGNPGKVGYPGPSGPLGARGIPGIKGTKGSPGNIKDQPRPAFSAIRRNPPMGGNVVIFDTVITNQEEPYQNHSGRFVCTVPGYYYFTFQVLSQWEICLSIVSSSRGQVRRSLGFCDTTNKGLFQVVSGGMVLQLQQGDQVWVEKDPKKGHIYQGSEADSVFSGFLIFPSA
T8 sequence (P02746 28-253 limits assumed, chain 2 of 3): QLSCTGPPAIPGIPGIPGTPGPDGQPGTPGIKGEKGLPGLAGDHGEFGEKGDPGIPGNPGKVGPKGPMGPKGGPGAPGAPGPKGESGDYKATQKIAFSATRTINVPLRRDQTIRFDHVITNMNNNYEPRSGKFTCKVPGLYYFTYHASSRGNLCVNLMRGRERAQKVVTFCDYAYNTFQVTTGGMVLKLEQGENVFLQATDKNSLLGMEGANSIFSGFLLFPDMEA
T8 sequence (P02747 29-245 limits assumed, chain 3 of 3): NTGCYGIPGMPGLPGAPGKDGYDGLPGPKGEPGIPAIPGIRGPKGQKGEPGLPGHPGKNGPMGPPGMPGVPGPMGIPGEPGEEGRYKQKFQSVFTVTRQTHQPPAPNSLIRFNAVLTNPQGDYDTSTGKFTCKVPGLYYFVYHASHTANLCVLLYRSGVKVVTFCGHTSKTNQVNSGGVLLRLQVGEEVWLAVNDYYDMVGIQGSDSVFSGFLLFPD

B1: IgG1-b12 (antibody)
heavy: not shown
light: EIVLTQSPGTLSLSPGERATFSCRSSHSIRSRRVAWYQHKPGQAPRLVIHGVSNRASGISDRFSGSGSGTDFTLTITRVEPEDFALYYCQVYGASSYTFGQGTKLERKRTVAAPSVFIFPPSDEQLKSGTASVVCLLNNFYPREAKVQWKVDNALQSGNSQESVTEQDSKDSTYSLSSTLTLSKADYEKHKVYACEVTHQGLSSPVTKSFNRGEC
notes: HIV gp120-specific negative control with wild type Fc; also called human IgG1 antibody b12
- binding result [1]: no binding
- binding result [2]: binds

B2: IgG1-11B8-E430G-S440K-E333S (antibody)
heavy: EVQLVQSGGGLVHPGGSLRLSCTGSGFTFSYHAMHWVRQAPGKGLEWVSIIGTGGVTYYADSVKGRFTISRDNVKNSLYLQMNSLRAEDMAVYYCARDYYGAGSFYDGLYGMDVWGQGTTVTVSSASTKGPSVFPLAPSSKSTSGGTAALGCLVKDYFPEPVTVSWNSGALTSGVHTFPAVLQSSGLYSLSSVVTVPSSSLGTQTYICNVNHKPSNTKVDKRVEPKSCDKTHTCPPCPAPELLGGPSVFLFPPKPKDTLMISRTPEVTCVVVDVSHEDPEVKFNWYVDGVEVHNAKTKPREEQYNSTYRVVSVLTVLHQDWLNGKEYKCKVSNKALPAPISKTISKAKGQPREPQVYTLPPSREEMTKNQVSLTCLVKGFYPSDIAVEWESNGQPENNYKTTPPVLDSDGSFFLYSKLTVDKSRWQQGNVFSCSVMHGALHNHYTQKKLSLSPGK
light: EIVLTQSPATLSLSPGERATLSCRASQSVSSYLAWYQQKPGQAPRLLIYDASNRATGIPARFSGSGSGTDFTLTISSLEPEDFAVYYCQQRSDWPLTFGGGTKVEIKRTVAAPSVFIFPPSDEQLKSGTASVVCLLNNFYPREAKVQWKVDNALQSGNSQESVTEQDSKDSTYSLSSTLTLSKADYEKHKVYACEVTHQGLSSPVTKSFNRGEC
notes: also called IgG1-11B8-E333S-E430G-S440K
- reduction of FcγR binding against IgG1-11B8-E430G-S440K [3]: ~50%
- reduction of FcγR binding against IgG1-11B8-E430G-S440K [4]: ~50%
- reduction of FcγR binding against IgG1-11B8-E430G-S440K [5]: ~20%
- reduction of FcγR binding against IgG1-11B8-E430G-S440K [6]: ~50%
- reduction of FcγR binding against IgG1-11B8-E430G-S440K [7]: ~20%
- binding result [8]: binds
